Results from patent publication US20130171217A1, “ENZYMATIC PERACID GENERATION FOR USE IN SKIN CARE PRODUCTS” (E I DU PONT DE NEMOURS AND COMPANY, priority 2010, published 2013).

Test: One-step procedure on hair tresses, hair color loss ΔE
Method: The hair tresses in these examples were cut from the stock medium brown hair swatches that were custom made by International Hair Importers (Glendale, N.Y.). Each hair tress was glued at one end, and cut at 5 mm width and 4 cm long (excluding the glued portion), with 100+/−20 mg net hair weight. For each test condition, triplicates of hair tresses were used. In the one-step procedure, each hair tress was placed in a clean plastic weighing tray (VWR, Cat. #12577-053), then 1 mL of the perhydrolase HC1121 solution in a buffer was applied to the hair tress, and was rubbed into the hair tress with an applicator. Then calculated amount of triacetin and 30% H2O2 were applied onto each hair tress and rubbed into the hair tress which gave 200 mM triacetin and 100 mM H2O2. The hair tress sat in this reaction mixture for 30 min, before being washed thoroughly with tap water followed by paper towel dry. This completed a 30 min treatment cycle. The treatment cycle was repeated 16 times. Hair tress became lighter-colored and weakened during the treatment. After final rinse and air-drying, tensile strength tests as described in Example 25 were conducted on each hair tress to quantify hair weakening. In addition, L*, a*, b* color measurements were taken for each hair sample to quantify hair color loss, and L*, a*, b* color measurements were also taken for untreated hair as a reference for ΔE color difference calculations. ΔE was calculated in the standard way as ΔE=((L*−L*ref)^2+(a*−a*ref)^2+(b*−b*ref)^2)^0.5. […] At pH 6, when 30 μg/mL HC1121 was used which gave 0.3 μg/mg hair E/H ratio, the tensile strength of treated hair tress reduced to 1.9 N/mg hair, approaching 1.5 N/mg hair, the benchmark strength of hair treated with NAIR® cream for 5 min. At pH 7, when 30 μg/mL HC1121 was used, the tensile strength of treated hair tress was 0.3 N/mg hair, much less than the 1.5 N/mg hair benchmark. Therefore, proper concentration of enzyme at proper pH could weaken hair effectively. The measured hair color loss for treated hair tresses correlated well with the weakening of hair: the greater hair weakening, the greater hair color loss.
Hair tresses were treated using the same procedure as described in Example 40, except that SLES (sodium laurel ether sulfate, a common soap ingredient) wash step was added before tap water rinse step each cycle to imitate daily shower in real life, where 1 mL 1% SLES (“RHODAPEX ES 2K” by Rhodia Inc., Cranbury, N.J.) was transferred onto hair tress and the hair tress was rubbed with gloved hand on the palm for 30 seconds. The treatment parameters for this example (enzyme concentration, pH and buffer concentration, and treatment cycle time) were shown in Table 34. For the 24 hr treatment cycle, the hair tress sat in the mixture for 1 hr before being taken out to a dry dish. The hair tress sat dry for 23 hr before being washed with 1 mL 1% SLES followed by tap water rinse and paper towel dry. For the 30 min treatment cycles, the treatment cycle was repeated 16 times. […] After final rinse and air-drying for each hair tress, tensile strength test and color measurement as described in Example 40 were conducted on each hair tress to quantify hair weakening and hair color loss. […] Hair tensile strength ranged from 0.3 to 0.8 N/mg hair, much less than the 1.5 N/mg hair tensile strength benchmark. Stronger hair weakening occurred at higher buffer concentration and longer treatment time. […] Therefore, it was anticipated that even lower enzyme concentration could be used to reach benchmark hair weakening at slightly higher pH (pH 6.6 compared to pH 6 in Example 40), higher buffer concentration and longer treatment time.
Hair tresses were treated using the same procedure for 24 hr treatment cycles as described in Example 41 using 10 μg/mL HC1121 at pH 6.6 and substrates at various concentrations. […]

B1: C277S-HC263: C277S variant of Thermotoga maritima perhydrolase fused via a flexible linker to hair-binding domain HC263 (protein)
chain: MAFFDLPLEELKKYRPERYEEKDFDEFWEETLAESEKFPLDPVFERMESHLKTVEAYDVTFSGYRGQRIKGWLLVPKLEEEKLPCVVQYIGYNGGRGFPHDWLFWPSMGYICFVMDTRGQGSGWLKGDTPDYPEGPVDPQYPGFMTRGILDPRTYYYRRVFTDAVRAVEAAASFPQVDQERIVIAGGSQGGGIALAVSALSKKAKALLCDVPFLCHFRRAVQLVDTHPYAEITNFLKTHRDKEEIVFRTLSYFDGVNFAARAKIPALFSVGLMDNISPPSTVFAAYNYYAGPKEIRIYPYNNHEGGGSFQAVEQVKFLKKLFEKGGPGSGGAGSPGSAGGPGSPSAQSQLPDKHSGLHERAPQRYGPEPEPEPEPIPEPPKEAPVVIEKPKPKPKPKPKPPAHDHKNQKETHQRHAAGSGGGGSPHHHHHH
- Hair color loss avg ΔE (10 μg/mL HC1121, pH 6.6, 50 mM phosphate, 200 mM TA/100 mM H2O2, 24 hr/cycle, 8 cycles): 13.8
- Hair color loss avg ΔE (10 μg/mL HC1121, pH 6.6, 50 mM phosphate, 200 mM TA/200 mM H2O2, 24 hr/cycle, 8 cycles): 16.7
- Hair color loss avg ΔE (10 μg/mL HC1121, pH 6.6, 50 mM phosphate, 200 mM TA/300 mM H2O2, 24 hr/cycle, 8 cycles): 20.1
- Hair color loss avg ΔE (10 μg/mL HC1121, pH 6.6, 50 mM phosphate, 200 mM TA/500 mM H2O2, 24 hr/cycle, 8 cycles): 21.8
- Hair color loss avg ΔE (10 μg/mL HC1121, pH 6.6, 50 mM phosphate, 500 mM TA/500 mM H2O2, 24 hr/cycle, 8 cycles): 22.3
- Hair color loss avg ΔE (one-step, 5 μg/mL enzyme, pH 6, 30 min × 16): 5.2
- Hair color loss avg ΔE (one-step, 15 μg/mL enzyme, pH 6, 30 min × 16): 6.8
- Hair color loss avg ΔE (one-step, 30 μg/mL enzyme, pH 6, 30 min × 16): 8.7
- Hair color loss avg ΔE (one-step, 30 μg/mL enzyme, pH 7, 30 min × 16): 16.6
- Hair color loss avg ΔE (one-step, pH 6.6, 50 mM buffer, 30 min/cycle X 16 cycles, SLES wash each cycle): 17.7
- Hair color loss avg ΔE (one-step, pH 6.6, 50 mM buffer, 24 hr/cycle X 7 cycles, SLES wash each cycle): 15.6
- Hair color loss avg ΔE (one-step, pH 6.6, 100 mM buffer, 30 min/cycle X 16 cycles, SLES wash each cycle): 24.2
